Legend:
GST-SMN fusion protein [1] = target: T1, GST-SMN fusion protein (human, UniProt Q16637 1-294); test: GST pull-down, 35S IVT protein (FIG. 44)
T1 construct: Recombinant from E. coli, immobilised on glutathione-Sepharose; also called GST-SMNwt; GST-SMN chimeric protein; not shown: glutathione S-transferase (GST) tag of vector pGEX-5X

[2] = target: Sm D1 protein, in vitro translated and 35S-labeled (UniProt P62314 1-119); test: GST pull-down, 35S IVT protein
[3] = target: T2, SMN, endogenous protein in human cell extracts (human, UniProt Q16637 2-294); test: co-IP with 2B1 from transfected 293T cells, Western blot
T2 construct: also called Survival of Motor Neurons protein
T2 sequence (Q16637 2-294 limits assumed): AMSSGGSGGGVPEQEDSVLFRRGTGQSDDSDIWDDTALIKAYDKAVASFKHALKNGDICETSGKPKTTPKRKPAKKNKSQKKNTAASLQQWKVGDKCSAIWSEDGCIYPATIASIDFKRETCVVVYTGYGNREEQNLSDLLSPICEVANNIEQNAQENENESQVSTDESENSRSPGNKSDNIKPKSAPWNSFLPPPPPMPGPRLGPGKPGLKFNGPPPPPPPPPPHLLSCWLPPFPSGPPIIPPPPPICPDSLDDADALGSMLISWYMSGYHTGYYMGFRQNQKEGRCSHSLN

GST alone = target: T3, GST alone (UniProt P08515 1-218 = GST); test: GST pull-down, 35S IVT protein
T3 construct: Negative control on glutathione-Sepharose; also called glutathione S-transferase
T3 sequence (P08515 whole entry): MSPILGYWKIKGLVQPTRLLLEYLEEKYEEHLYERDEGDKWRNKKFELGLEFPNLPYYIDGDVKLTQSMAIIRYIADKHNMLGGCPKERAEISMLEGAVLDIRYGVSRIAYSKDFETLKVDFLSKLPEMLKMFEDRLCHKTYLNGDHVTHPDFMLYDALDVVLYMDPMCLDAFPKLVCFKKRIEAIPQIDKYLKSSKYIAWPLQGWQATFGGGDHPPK

[4] = target: T4, His-tagged SMN wild type, purified recombinant (human, UniProt Q16637 1-294); test: in vitro binding of purified recombinant protein to GST-SIP1
T4 construct: E. coli BL21(DE3)pLysS, nickel chelation chromatography; also called His-SMN; His6-SMN; not shown: His6 tag (pET28 vector, detected with anti-T7 tag antibody)
T4 sequence (Q16637 whole entry): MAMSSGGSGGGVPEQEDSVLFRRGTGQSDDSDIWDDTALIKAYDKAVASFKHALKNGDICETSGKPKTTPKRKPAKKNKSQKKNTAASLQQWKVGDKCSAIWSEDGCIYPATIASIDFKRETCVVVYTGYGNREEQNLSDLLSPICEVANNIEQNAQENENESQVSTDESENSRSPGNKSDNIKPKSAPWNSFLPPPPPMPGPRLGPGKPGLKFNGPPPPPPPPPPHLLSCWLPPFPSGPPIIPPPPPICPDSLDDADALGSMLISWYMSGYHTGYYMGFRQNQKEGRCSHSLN

[5] = target: T5, His-tagged SMNY272C, purified recombinant (human, UniProt Q16637 1-294); test: as above
T5 construct: also called His-SMNY272C; SMNY272C recombinant protein; not shown: His6 tag (pET28 vector)
T5 sequence (Q16637 whole entry Y272C): as the sequence (Q16637 whole entry) above, with Y272C counted along it

[6] = target: recombinant SMN protein (far-Western target) (human, UniProt Q16637 1-294, limits assumed); test: far-Western with in vitro translated SIP1
recombinant SMN protein (far-Western target), sequence (Q16637 whole entry): as the sequence (Q16637 whole entry) above

myc-tagged SMNY272C = target: T6, myc-tagged SMNY272C (human, UniProt Q16637 1-294); test: co-IP with 2E17 from transfected 293T cells, Western blot
T6 construct: In vitro translated (35S) or expressed in 293T cells
T6 sequence (Q16637 whole entry Y272C): as the sequence (Q16637 whole entry) above, with Y272C counted along it

[7] = target: T2, SMN, endogenous protein in human cell …; test: gel filtration (Superose 6 HR 10/30) of HeLa S100, Western blot
myc-tagged SMN wild type = target: T7, myc-tagged SMN wild type (human, UniProt Q16637 1-294); test: co-IP with 2E17 from transfected 293T cells, Western blot (association in a complex)
T7 construct: In vitro translated (35S) or expressed in transfected 293T cells; also called myc-SMN; mycSMN
T7 sequence (Q16637 whole entry): as the sequence (Q16637 whole entry) above

GST-SMN fusion protein [8] = target: T1, GST-SMN fusion protein; test: GST pull-down, 35S IVT protein

T1 sequence (Q16637 whole entry, the tested form may be a part): as the sequence (Q16637 whole entry) above

B1: myc-tagged SIP1ΔC162 (other, not shown: small tags and cut ends)
chain: MRRAELAGLKTMAWVPAESAVEELMPRLLPVEPCDLTEGFDPSVPPRTPQEYLRRVQIEAAQCPDVVVAQIDPKKLKRKQSVNISLSGCQPAPEGYSPTLQWQQQQVAQFSTVRQNVN
binding result (GST-SMN fusion protein [1]): no binding

B2: GST-Gemin3 fusion protein (other)
chain: MAAAFEASGALAAVATAMPAEHVAVQVPAPEPTPGPVRILRTAQDLSSPRTRTGDVLLAEPADFESLLLSRPVLEGLRAAGFERPSPVQLKAIPLGRCGLDLIVQAKSGTGKTCVFSTIALDSLVLENLSTQILILAPTREIAVQIHSVITAIGIKMEGLECHVFIGGTPLSQDKTRLKKCHIAVGSPGRIKQLIELDYLNPGSIRLFILDEADKLLEEGSFQEQINWIYSSLPASKQMLAVSATYPEFLANALTKYMRDPTFVRLNSSDPSLIGLKQYYKVVNSYPLAHKVFEEKTQHLQELFSRIPFNQALVFSNLHSRAQHLADILSSKGFPAECISGNMNQNQRLDAMAKLKHFHCRVLISTDLTSRGIDAEKVNLVVNLDVPLDWETYMHRIGRAGRFGTLGLTVTYCCRGEEENMMMRIAQKCNINLLPLPDPIPSGLMEECVDWDVEVKAAVHTYGIASVPNQPLKKQIQKIERTLQIQKAHGDHMASSRNNSVSGLSVKSKNNTKQKLPVKSHSECGIIEKATSPKELGCDRQSEEQMKNSVQTPVENSTNSQHQVKEALPVSLPQIPCLSSFKIHQPYTLTFAELVEDYEHYIKEGLEKPVEIIRHYTGPGDQTVNPQNGFVRNKVIEQKVPVLASSSQSGDSESDSDSYSSRTSSQSKGNKSYLESSSDNQLKDSESTPVDDRISLEQPPNGTDTPNPEKYQESPGIQMKTRLKEGASQRAKQSRRNLPRRSSFRLQTEAQEDDWYDCHREIRLSFSDTYQDYEEYWRAYYRAWQEYYAAASHSYYWNAQRHPSWMAAYHMNTIYLQEMMHSNQ
notes: also called Gemin3-GST; not shown: glutathione S-transferase (GST) tag of vector pGEX-5X-3
binding result [2]: no binding

B3: myc-tagged SIP1ΔC89 (other, not shown: small tags and cut ends)
chain: MRRAELAGLKTMAWVPAESAVEELMPRLLPVEPCDLTEGFDPSVPPRTPQEYLRRVQIEAAQCPDVVVAQIDPKKLKRKQSVNISLSGCQPAPEGYSPTLQWQQQQVAQFSTVRQNVNKHRSHWKSQQLDSNVTMPKSEDEEGWKKFCLGEKLCADGAVGPATNESPGIDYVQIGFPPLLSIVSRMNQATV
notes: The whole entry must be cut by 89 residues at the C-terminus
binding result (GST-SMN fusion protein [1]): no binding | binding result [3]: no binding

B4: myc-ΔN368C277Gemin3 (other, not shown: small tags and cut ends)
chain: TSRGIDAEKVNLVVNLDVPLDWETYMHRIGRAGRFGTLGLTVTYCCRGEEENMMMRIAQKCNINLLPLPDPIPSGLMEECVDWDVEVKAAVHTYGIASVPNQPLKKQIQKIERTLQIQKAHGDHMASSRNNSVSGLSVKSKNNTKQKLPVKSHSECGIIEKATSPKELGCDRQSEEQMK
notes: also called ΔN368C272Gemin3
binding result (GST alone): no binding

B5: GST-SIP1 fusion protein (other, not shown: a dimerising Fc or GST)
chain: MRRAELAGLKTMAWVPAESAVEELMPRLLPVEPCDLTEGFDPSVPPRTPQEYLRRVQIEAAQCPDVVVAQIDPKKLKRKQSVNISLSGCQPAPEGYSPTLQWQQQQVAQFSTVRQNVNKHRSHWKSQQLDSNVTMPKSEDEEGWKKFCLGEKLCADGAVGPATNESPGIDYVQIGFPPLLSIVSRMNQATVTSVLEYLSNWFGERDFTPELGRWLYALLACLEKPLLPEAHSLIRQLARRCSEVRLLVDSKDDERVPALNLLICLVSRYFDQRDLADEPS
binding result [4]: binds | binding result [5]: binds

B6: SIP1 (human), in vitro translated and 35S-labeled (other)
chain: B5 chain
notes: Made in rabbit reticulocyte lysate; also called full-length SIP1; Gemin2
binding result [6]: binds

B7: myc-tagged SIP1 wild type (other, not shown: small tags and cut ends)
chain: B5 chain
notes: In vitro translated (35S) or expressed in 293T cells; also called myc-SIP1; myc-Gemin2
binding result [3]: binds

B8: SIP1 (Gemin2), endogenous protein in human cell extracts (other)
chain: B5 chain
binding result (myc-tagged SMNY272C): binds | binding result [7]: binds | binding result (myc-tagged SMN wild type): binds

B9: myc-ΔN548Gemin3 (other, not shown: small tags and cut ends)
chain: SVQTPVENSTNSQHQVKEALPVSLPQIPCLSSFKIHQPYTLTFAELVEDYEHYIKEGLEKPVEIIRHYTGPGDQTVNPQNGFVRNKVIEQKVPVLASSSQSGDSESDSDSYSSRTSSQSKGNKSYLESSSDNQLKDSESTPVDDRISLEQPPNGTDTPNPEKYQESPGIQMKTRLKEGASQRAKQSRRNLPRRSSFRLQTEAQEDDWYDCHREIRLSFSDTYQDYEEYWRAYYRAWQEYYAAASHSYYWNAQRHPSWMAAYHMNTIYLQEMMHSNQ
binding result (GST-SMN fusion protein [8]): no binding
